We go through four molecules from patent US20120208237A1 (Novo Nordisk, published 2012).

The target of assay [1] is recombinant soluble KIR2DL1 (entire extracellular domain, produced in E. coli) (human) (UniProt P43626). Kind of assay: Biacore, KIR2DL1 chip; first Ab 1-6F1 bound. On the technique in general: In SPR one partner is held on a chip, and binding of the other changes the refractive index at the surface.
For assay [2] the target is unchanged. Kind of assay: Biacore, KIR2DL1 chip; first Ab 1-6F5 bound.
The target is the same in assay [3]. Kind of assay: Biacore, KIR2DL1 chip; first Ab 1-7F9 bound.
In assay [4] the target is recombinant soluble KIR2DL3 (entire extracellular domain, produced in E. coli) (human) (UniProt P43628). Kind of assay: Biacore, KIR2DL3 chip; first Ab 1-4F1 bound.
Assay [5] has the same target. Kind of assay: Biacore, KIR2DL3 chip; first Ab 1-6F1 bound.
For assay [6] the target is unchanged. Kind of assay: Biacore, KIR2DL3 chip; first Ab 1-6F5 bound.
Assay [7] has the same target. Kind of assay: Biacore, KIR2DL3 chip; first Ab 1-7F9 bound.
For assay [8], the target named is immobilized KIR2DS1 protein (human) (UniProt Q14954). Kind of assay: Biacore, KIR2DS1 chip; first Ab 1-7F9 bound.
Chain of immobilized KIR2DS1 protein (human) (Q14954 22-245 limits assumed): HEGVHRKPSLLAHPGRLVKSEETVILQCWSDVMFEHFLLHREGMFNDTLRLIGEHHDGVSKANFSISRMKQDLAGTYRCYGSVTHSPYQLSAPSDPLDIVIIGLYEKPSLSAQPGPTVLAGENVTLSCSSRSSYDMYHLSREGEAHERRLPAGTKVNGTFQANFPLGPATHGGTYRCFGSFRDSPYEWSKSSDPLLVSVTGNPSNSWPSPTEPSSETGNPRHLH
Assay [9] has as its target recombinant soluble KIR2DL1 (entire extracellular domain, produced in E. coli) (human) (UniProt P43626). Kind of assay: Biacore competition, KIR2DL1 chip; competitor (second Ab) EB6.
For assay [10] the target is unchanged. Kind of assay: Biacore competition, KIR2DL1 chip; competitor (second Ab) 1-4F1.
The target is the same in assay [11]. Kind of assay: Biacore competition, KIR2DL1 chip; competitor (second Ab) 1-6F1.
Assay [12] shares this target. Kind of assay: Biacore competition, KIR2DL1 chip; competitor (second Ab) 1-6F5.
Assay [13] shares this target. Kind of assay: Biacore competition, KIR2DL1 chip; competitor (second Ab) 1-7F9.
The target is the same in assay [14]. Kind of assay: Biacore competition, KIR2DL1 chip; competitor (second Ab) Pan2D.
For assay [15] the target is unchanged. Kind of assay: Biacore, KIR2DL1 chip; direct binding (field of first Ab 1-6F1).
Assay [16] shares this target. Kind of assay: Biacore, KIR2DL1 chip; direct binding (field of first Ab 1-6F5).
Assay [17] shares this target. Kind of assay: Biacore, KIR2DL1 chip; direct binding (field of first Ab 1-7F9).
In assay [18] the target is recombinant soluble KIR2DL3 (entire extracellular domain, produced in E. coli) (human) (UniProt P43628). Kind of assay: Biacore competition, KIR2DL3 chip; competitor (second Ab) 1-4F1.
The target is the same in assay [19]. Kind of assay: Biacore competition, KIR2DL3 chip; competitor (second Ab) 1-6F1.
The target is the same in assay [20]. Kind of assay: Biacore competition, KIR2DL3 chip; competitor (second Ab) 1-6F5.
Assay [21] shares this target. Kind of assay: Biacore competition, KIR2DL3 chip; competitor (second Ab) 1-7F9.
Assay [22] has the same target. Kind of assay: Biacore competition, KIR2DL3 chip; competitor (second Ab) GL183.
The target is the same in assay [23]. Kind of assay: Biacore competition, KIR2DL3 chip; competitor (second Ab) Pan2D.
The target is the same in assay [24]. Kind of assay: Biacore, KIR2DL3 chip; direct binding (field of first Ab 1-4F1).
The target is the same in assay [25]. Kind of assay: Biacore, KIR2DL3 chip; direct binding (field of first Ab 1-6F1).
The target is the same in assay [26]. Kind of assay: Biacore, KIR2DL3 chip; direct binding (field of first Ab 1-6F5).
The target is the same in assay [27]. Kind of assay: Biacore, KIR2DL3 chip; direct binding (field of first Ab 1-7F9).
For assay [28], the target named is immobilized KIR2DS1 protein (human) (UniProt Q14954). Kind of assay: Biacore competition, KIR2DS1 chip; competitor (second Ab) 1-4F1.
Assay [29] shares this target. Kind of assay: Biacore competition, KIR2DS1 chip; competitor (second Ab) 1-7F9.
The target is the same in assay [30]. Kind of assay: Biacore competition, KIR2DS1 chip; competitor (second Ab) Pan2D.
Assay [31] shares this target. Kind of assay: Biacore, KIR2DS1 chip; direct binding (field of first Ab 1-7F9).
The target in assay [32] is recombinant soluble KIR2DL1 (entire extracellular domain, produced in E. coli) (human) (UniProt P43626). Kind of assay: Biacore SPR, antibody over immobilized KIR2DL1 (bivalent binding).
Assay [33] concerns the target recombinant soluble KIR2DL3 (entire extracellular domain, produced in E. coli) (human) (UniProt P43628). Kind of assay: Biacore SPR, antibody over immobilized KIR2DL3 (bivalent binding).
Assay [34] concerns the target recombinant soluble KIR2DL1 (entire extracellular domain, produced in E. coli) (human) (UniProt P43626). Kind of assay: Biacore competition (Example 10), KIR2DL1 chip; competitor (second Ab) 1-7F9.
Assay [35] shares this target. Kind of assay: Biacore competition (Example 10), KIR2DL1 chip; competitor (second Ab) Pan2D.
Assay [36] has the same target. Kind of assay: Biacore competition (Example 10), KIR2DL1 chip; competitor (second Ab) DF200 (self).
The target of assay [37] is recombinant soluble KIR2DL3 (entire extracellular domain, produced in E. coli) (human) (UniProt P43628). Kind of assay: Biacore competition (Example 10), KIR2DL3 chip; competitor (second Ab) 1-7F9.
For assay [38] the target is unchanged. Kind of assay: Biacore competition (Example 10), KIR2DL3 chip; competitor (second Ab) Pan2D.
The target is the same in assay [39]. Kind of assay: Biacore competition (Example 10), KIR2DL3 chip; competitor (second Ab) DF200 (self).
Assay [40] concerns the target recombinant soluble KIR2DL1 (entire extracellular domain, produced in E. coli) (human) (UniProt P43626). Kind of assay: Biacore, KIR2DL1 chip; first Ab EB6 bound.
Assay [41] shares this target. Kind of assay: Biacore, KIR2DL1 chip; direct binding (field of first Ab EB6).
Assay [42] shares this target. Kind of assay: Biacore competition, KIR2DL1 chip; competitor (second Ab) DF200.
Assay [43] has the same target. Kind of assay: Biacore competition, KIR2DL1 chip; competitor (second Ab) EB6 (self).
Assay [44] concerns the target recombinant soluble KIR2DL3 (entire extracellular domain, produced in E. coli) (human) (UniProt P43628). Kind of assay: Biacore competition, KIR2DL3 chip; competitor (second Ab) DF200.
The target in assay [45] is T1, KIR2DS3 expressed on transfected cells (human, UniProt Q14952 22-304).
T1 construct: whole, on cells
T1 sequence (Q14952 22-304): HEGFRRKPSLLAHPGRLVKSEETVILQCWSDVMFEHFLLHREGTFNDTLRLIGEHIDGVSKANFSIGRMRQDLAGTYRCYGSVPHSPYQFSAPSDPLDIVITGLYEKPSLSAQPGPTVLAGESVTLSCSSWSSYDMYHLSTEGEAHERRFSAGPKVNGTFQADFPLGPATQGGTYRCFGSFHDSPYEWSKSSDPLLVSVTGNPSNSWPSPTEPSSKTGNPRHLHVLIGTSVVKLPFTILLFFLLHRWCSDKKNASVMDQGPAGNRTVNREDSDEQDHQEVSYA
Kind of assay: flow cytometry on cells transfected with KIR2DS3 (fifth column; its head is printed KIRDLS1 a second time, the legend's order gives KIR2DS3). In a few lines: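 Binding of human anti-KIR monoclonal antibodies to cells stably transfected with KIR2DS3 was measured by flow cytometry. Cells were incubated with the antibody at various concentrations (typically 0-50 μg/ml) in DMEM medium containing 2% FCS. They were then washed and stained with an APC-conjugated secondary antibody specific for human IgG, with all incubations and washes at 0-4° C. Cells were resuspended in PBS and analysed on a FACScalibur or FACScanto.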
On the technique in general: A flow cytometer gives signals particle by particle.

For murine monoclonal antibody DF200, the RU, second antibody after first antibody in assay [1] is 310 RU; in assay [2], 290 RU; in assay [3], 545 RU; in [4] it was 210 RU; in assay [5], 760 RU; in [6] it was 760 RU. In addition, the RU, second antibody after first antibody was determined as 450 RU in assay [7] and 1090 RU in [8]. The % inhibition of second antibody binding was 90% in assay [9]; 92% in assay [10]; 15% in assay [11]; 15% in assay [12]; 27% in assay [13]; 80% in assay [14]. Moreover, the % inhibition of second antibody binding turned out to be 75% in [18]; 16% in assay [19]; 4% in assay [20]; 62% in assay [21]; 20% in assay [22]; 75% in assay [23]. Besides, the % inhibition of second antibody binding in [28] turned out to be 87%; in assay [29], 15%; in assay [30] it was 70%; in assay [34], 17%; in [35] it was 85%; in assay [36], 80%. Further, the % inhibition of second antibody binding in assay [37] came to 80%; in assay [38], 50%; in assay [39] it was 85%. The RU, second antibody alone in assay [15] was 350 RU; in assay [16] it was 350 RU; in assay [17], 600 RU; in assay [24], 1140 RU; in [25], 790 RU; in assay [26], 800 RU. For the same molecule, the results for the RU, second antibody alone in assay [27] and in assay [31] were 770 RU and 900 RU, respectively. For the same molecule, the Kd in [32] stood at 10.9 nM; in assay [33], 2 nM.

In the case of murine monoclonal antibody EB6, the RU, second antibody after first antibody in assay [40] was determined as 200 RU; in assay [1] it was 320 RU; in assay [3], 180 RU. The results for the RU, second antibody alone in [41], in assay [15] and in assay [17] were 460 RU, 260 RU and 460 RU, respectively. The % inhibition of second antibody binding in [10] is 48%; in assay [11] it was 23%; in [13] it was 65%; in assay [42], 60%; in [14], 40%; in [43], 57%.

As to murine monoclonal antibody GL183, the RU, second antibody after first antibody stood at 330 RU in [4], 570 RU in assay [5] and 200 RU in assay [7]. Also, the % inhibition of second antibody binding in [18] stood at 75%; in assay [19], 18%; in assay [21], 76%; in assay [44], 8%; in assay [23] it was 40%. The RU, second antibody alone was 1240 RU in [24], 620 RU in assay [25] and 800 RU in assay [27].

B1: murine monoclonal antibody NKVSF1 (Pan2D) (antibody, V domains shown)
VH: EVQLQQSGTVLARPGASVKMSCKASGYTFTSYWMHWMKQRPGQGLEWIGTIYPGNSDTNYNQKFKGKAKLTAVTSTNTAYMELSSLTNEDSAVYYCSRPTTATRSSAMDYWGQGTSVTVSS
VL: QIVLTQSPASMSASLGERVTMTCTASSSVSSSYLYWYQQKPGSSPKLWIYSTSNLASGVPARFSGSGSGTSYSLTISSMEAEDAATYYCHQYHRSPPTFGGGTKLEIKR
notes: Murine mAb, bought from Serotec (MCA2243)
Take B1: the binding result in [45] was “no binding (tested: 1 µg/ml)”.
